From the supplement of paper PMC7877785
± gives the uncertainty stated by the source.

Assay: self-splicing fitness, log relative to wild type (ln ratio); higher = more splicing; Tetrahymena group I intron in knt gene, E. coli kanamycin selection, DiMSum; sequences stand for … in CUCUCU…GGAGGGAAAAGUUAUCAGGCAUGCACCUGGUAGCUAGUCUUUAAACCAAUAGAUUGCAUCGGUUUAAAAGGCAAGACCGUCAAAUUGCGGGAAAGGGGUCAACAGCCGUUCAGUACCAAGUCUCAGGGGAAACUUUGAGAUGGCCUUGCAAAGGGUAUGGUAAUAAGCUGACGGACAUGGUCCUAACCACGCAGCCAAGUCCUAAGUCAACAGAUCUUCUGUUGAUAUGGAUGCAGUUCACAGACUAAAUGUCGGUCGGGGAAGAUGUAUUCUUCUCAUAAGAUAUAGUCGGACCUCUCCUUAAUGGGAGCUAGCGGAUGAAGUGAUGCAACACUGGAGCCGCUGGGAACUAAUUUGUAUGCGAAAGUAUAUUGAUUAGUUUUGGAGUACUCGUGGUCG
Procedure, shortened: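 Library with all eight P1ex-region intron nucleotides randomised, intron inside the knt kanamycin-resistance gene on pET-22b(+), in E. coli BL21(DE3). Cells grew overnight at 37°C or 30°C on LB agar with or without 25 μg/mL kanamycin (plus 100 μg/mL carbenicillin, 50 μM IPTG, 0.2% rhamnose), in six replicate transformations. Pooled colonies were amplicon-sequenced on Illumina HiSeq 2500. DiMSum fitness is the error-weighted combination of wild-type-normalised replicate fold changes, kanamycin versus none.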

Sequence | self-splicing fitness (ln) (30 °C) | self-splicing fitness (ln) (37 °C)
GAAGAGCAAUAUUACGUUUG | -4.05 ± 0.2 | -2.8 ± 0.23
GAAUAGCAAUAUUACGAAAC | -1.62 ± 0.24 | -0.632 ± 0.17
GAAUAGCAAUAUUACGAACU | -0.471 ± 0.085 | 0.508 ± 0.1
GAAUAGCAAUAUUACGAAGA | -2.78 ± 0.33 | -1.45 ± 0.25
GAAUAGCAAUAUUACGAAUC | -2.32 ± 0.14 | -0.98 ± 0.14
GAAUAGCAAUAUUACGACUA | -1.42 ± 0.2 | -0.533 ± 0.31
GAAUAGCAAUAUUACGAGAG | -2.92 ± 0.2 | -3.05 ± 0.28
GAAUAGCAAUAUUACGAGCG | -1.62 ± 0.069 | -0.354 ± 0.076
GAAUAGCAAUAUUACGAUGC | -1.02 ± 0.095 | -0.245 ± 0.12
GAAUAGCAAUAUUACGCAAA | -3.06 ± 0.38 | -1.75 ± 0.27
GAAUAGCAAUAUUACGCAAU | -2.31 ± 0.11 | -0.898 ± 0.15
GAAUAGCAAUAUUACGCCAG | -2.58 ± 0.24 | -1.69 ± 0.3
GAAUAGCAAUAUUACGCGCG | -0.825 ± 0.1 | -0.591 ± 0.13
GAAUAGCAAUAUUACGCUAG | -2.22 ± 0.16 | -0.535 ± 0.14
GAAUAGCAAUAUUACGGACC | -0.00208 ± 0.1 | 0.0435 ± 0.18
GAAUAGCAAUAUUACGGCGA | -1.11 ± 0.11 | -0.3 ± 0.11
GAAUAGCAAUAUUACGGCUA | -0.51 ± 0.15 | -0.595 ± 0.14
GAAUAGCAAUAUUACGGGAG |  | -3.35 ± 0.33
GAAUAGCAAUAUUACGGGCG | -1.16 ± 0.078 | -0.509 ± 0.1
GAAUAGCAAUAUUACGGGUG | -3.74 ± 0.15 | -1.03 ± 0.095
GAAUAGCAAUAUUACGUGCA | -0.851 ± 0.083 | -0.317 ± 0.11
GAAUAGCAAUAUUACGUUCG | -1.16 ± 0.13 | -0.541 ± 0.17
GAAUAGCAAUAUUACGUUUG | -1.61 ± 0.15 | -1.05 ± 0.15
GACAAGCAAUAUUACGAAAC | -2.29 ± 0.18 | -2.5 ± 0.17
GACAAGCAAUAUUACGAGAC | -2.95 ± 0.27 | -2.29 ± 0.27

Sequence | self-splicing fitness (ln) (30 °C) | self-splicing fitness (ln) (37 °C)
GACAAGCAAUAUUACGAGGG | -4.27 ± 0.18 | -2.81 ± 0.15
GACAAGCAAUAUUACGAUAA | -1.68 ± 0.11 | -0.345 ± 0.1
GACAAGCAAUAUUACGAUGA | -0.527 ± 0.078 | -0.303 ± 0.085
GACAAGCAAUAUUACGAUGG | -2.52 ± 0.1 | -2.14 ± 0.16
GACAAGCAAUAUUACGCACC | -1.43 ± 0.14 | -0.635 ± 0.19
GACAAGCAAUAUUACGCGGC | -2.75 ± 0.17 | -3.11 ± 0.21
GACAAGCAAUAUUACGGAGU | -3.03 ± 0.1 | -0.954 ± 0.1
GACAAGCAAUAUUACGGCGA | -0.213 ± 0.074 | 0.21 ± 0.085
GACAAGCAAUAUUACGGCGC | -0.29 ± 0.098 | 0.11 ± 0.12
GACAAGCAAUAUUACGGGAC | -2.13 ± 0.25 | -1.02 ± 0.4
GACAAGCAAUAUUACGUAGA | -2.31 ± 0.092 | -0.707 ± 0.097
GACAAGCAAUAUUACGUCAG | -3.3 ± 0.23 | -2.21 ± 0.2
GACAAGCAAUAUUACGUGCC | -1.69 ± 0.14 | -1.21 ± 0.17
GACAAGCAAUAUUACGUGGC | -4.6 ± 0.32 | -1.61 ± 0.11
GACAAGCAAUAUUACGUGUA | -1.56 ± 0.071 | -0.227 ± 0.078
GACAAGCAAUAUUACGUUGC | -3.63 ± 0.14 | -2.31 ± 0.16
GACCAGCAAUAUUACGAAAG | -2.49 ± 0.1 | -2.58 ± 0.18
GACCAGCAAUAUUACGAAGA | -1.44 ± 0.14 | -0.589 ± 0.12
GACCAGCAAUAUUACGAAUC | -0.584 ± 0.096 | -0.196 ± 0.1
GACCAGCAAUAUUACGAGAA | -1.67 ± 0.15 | -1.05 ± 0.15
GACCAGCAAUAUUACGAGAC | -0.715 ± 0.15 | -1.49 ± 0.18
GACCAGCAAUAUUACGAGUA | -1.03 ± 0.087 | 0.128 ± 0.084
GACCAGCAAUAUUACGAUAA | -1.53 ± 0.094 | -1.13 ± 0.1
GACCAGCAAUAUUACGAUAG | -1.73 ± 0.074 | -1.45 ± 0.11
GACCAGCAAUAUUACGCCUG | -2.16 ± 0.11 | -0.614 ± 0.12

Sequence | self-splicing fitness (ln) (30 °C) | self-splicing fitness (ln) (37 °C)
GACCAGCAAUAUUACGCGUC | -4.75 ± 0.38 | -2.54 ± 0.22
GACCAGCAAUAUUACGCUCA | -0.152 ± 0.059 | -0.295 ± 0.079
GACCAGCAAUAUUACGCUCU | -0.6 ± 0.061 | 0.0283 ± 0.089
GACCAGCAAUAUUACGCUGU | -3.34 ± 0.15 | -1.54 ± 0.095
GACCAGCAAUAUUACGGGGG | -1.92 ± 0.08 | -1.17 ± 0.089
GACCAGCAAUAUUACGGUAG | -0.241 ± 0.066 | 0.668 ± 0.085
GACCAGCAAUAUUACGGUCA | -1.44 ± 0.099 | -0.935 ± 0.1
GACCAGCAAUAUUACGGUGC | -2.31 ± 0.067 | -2.09 ± 0.09
GACCAGCAAUAUUACGUACG | -1.34 ± 0.074 | -0.696 ± 0.088
GACCAGCAAUAUUACGUCGU | -0.568 ± 0.052 | -0.218 ± 0.069
GACCAGCAAUAUUACGUGAC | -1.27 ± 0.069 | -1.7 ± 0.11
GACCAGCAAUAUUACGUGCA | -0.378 ± 0.07 | -0.122 ± 0.086
GACCAGCAAUAUUACGUGUA | -0.635 ± 0.06 | 0.255 ± 0.074
GACCAGCAAUAUUACGUGUC | -3.52 ± 0.16 | -3.05 ± 0.24
GACCAGCAAUAUUACGUUAG | -3.82 ± 0.24 | -2.79 ± 0.2
GACCAGCAAUAUUACGUUUU | -0.363 ± 0.036 | -0.174 ± 0.052
GACGAGCAAUAUUACGACCC | -0.0053 ± 0.24 | -0.307 ± 0.22
GACGAGCAAUAUUACGAGGC | -3.33 ± 0.18 | -2.85 ± 0.29
GACGAGCAAUAUUACGCAUC |  | -2.06 ± 0.36
GACGAGCAAUAUUACGCCUU | -3.3 ± 0.4 | -1.48 ± 0.24
GACGAGCAAUAUUACGCGCC | -2.74 ± 0.19 | -1.59 ± 0.25
GACGAGCAAUAUUACGCGUG | -3.11 ± 0.29 | -1.77 ± 0.21
GACGAGCAAUAUUACGCUGA | -3.74 ± 0.35 | -1.95 ± 0.24
GACGAGCAAUAUUACGGGAU | -4.33 ± 0.28 | -1.74 ± 0.18
GACGAGCAAUAUUACGGUAC | -1.99 ± 0.39 | -1.98 ± 0.34
